In publication PMC2994906 (PLoS ONE, 2010):
Blank lines part the entries; values can stand above or below the binder they belong to. No end group written: not given here.

Assays:
Details in all cases: both partners purified
[1] = target: T1, human RARα LBD (residues 153-421) (human, UniProt P10276 153-421); assay: ITC; SRC-1 NR2 peptide (1.3 mM) injected into 20-50 µM RAR without ligand (apo); 30°C; 20 mM Tris pH 8.0, 200 mM NaCl, 2% ethanol
T1 construct: Cloned in pET15b; The purification of RARα alone is not described; also called hRARα LBD; RARα monomer; source: E. coli BL21 (DE3), purified
T1 sequence (looked up): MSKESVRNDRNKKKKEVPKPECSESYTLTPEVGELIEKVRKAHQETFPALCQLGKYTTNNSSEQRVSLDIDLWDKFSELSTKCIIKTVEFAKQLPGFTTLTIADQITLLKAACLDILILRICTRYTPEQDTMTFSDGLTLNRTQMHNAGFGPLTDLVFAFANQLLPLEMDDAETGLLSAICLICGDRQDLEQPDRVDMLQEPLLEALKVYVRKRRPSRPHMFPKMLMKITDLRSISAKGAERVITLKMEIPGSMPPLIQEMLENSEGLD

[2] = target: T1, human RARα LBD (residues 153-421); assay: ITC; SRC-1 NR2 peptide (1.3 mM) injected into 20-50 µM RAR or RAR/RXR with LG100754 in fivefold molar excess; 30°C; 20 mM Tris pH 8.0, 200 mM NaCl, 2% ethanol
[3] = target: T2, hRARα/mRXRα LBD heterodimer (human | mouse, UniProt P10276 153-421; P28700 228-467); assay: as above
T2 construct: RARα in pET15b (His-tagged), RXRα in pET3a (no tag named); The heterodimer was formed beforehand by copurification; also called RAR/RXR; RARα/RXRα LBD; copies: 1 + 1
T2 sequence (looked up) 1: T1 sequence (looked up)
T2 sequence (looked up) 2: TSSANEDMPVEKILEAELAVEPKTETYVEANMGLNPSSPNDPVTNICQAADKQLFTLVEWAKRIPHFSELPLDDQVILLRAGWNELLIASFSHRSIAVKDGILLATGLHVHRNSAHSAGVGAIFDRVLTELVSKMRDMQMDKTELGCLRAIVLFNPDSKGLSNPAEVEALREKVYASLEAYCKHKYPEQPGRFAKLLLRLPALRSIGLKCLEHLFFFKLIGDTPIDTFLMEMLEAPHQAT

[4] = target: T1, human RARα LBD (residues 153-421); assay: ITC; SRC-1 NR2 peptide (1.3 mM) injected into 20-50 µM RAR with an RAR agonist in fivefold molar excess (agonist not named); 30°C; 20 mM Tris pH 8.0, 200 mM NaCl, 2% ethanol
[5] = target: T3, hRARα/mRXRα LBD heterodimer (human | mouse, UniProt P10276 153-421; P28700 228-467); assay: fluorescence polarisation; fluorescence anisotropy; hRARα/mRXRα LBDs added to 1 µM TAMRA-SRC-1 NR2 peptide; 20°C; 10 mM TRIS-HCl pH 7.5, 150 mM NaCl, 10 mM DTT; apparent; RAR ligand AM580, RXR apo
T3 construct: Heterodimer formed beforehand; small-molecule ligands (atRA, LG100754, AM580, BMS614, BMS649, 9-cisRA, HX531) differ between experiments and are named in the assays; also called RARα/RXRα LBD; RAR/RXR; not shown: His6, N-terminal, kept; copies: 1 + 1
T3 sequence (looked up) 1: T1 sequence (looked up)
T3 sequence (looked up) 2: T2 sequence (looked up) 2

[6] = target: T3, hRARα/mRXRα LBD heterodimer; assay: fluorescence polarisation; fluorescence anisotropy; hRARα/mRXRα LBDs added to 1 µM TAMRA-SRC-1 NR2 peptide; 20°C; 10 mM TRIS-HCl pH 7.5, 150 mM NaCl, 10 mM DTT; apparent; RAR apo, RXR ligand BMS649
[7] = target: T3, hRARα/mRXRα LBD heterodimer; assay: fluorescence polarisation; fluorescence anisotropy; hRARα/mRXRα LBDs added to 1 µM TAMRA-SRC-1 NR2 peptide; 20°C; 10 mM TRIS-HCl pH 7.5, 150 mM NaCl, 10 mM DTT; apparent; RAR ligand BMS614, RXR ligand BMS649
[8] = target: T3, hRARα/mRXRα LBD heterodimer; assay: fluorescence polarisation; fluorescence anisotropy; hRARα/mRXRα LBDs added to a fixed concentration of TAMRA-SRC-1 NR2 peptide; 20°C; 10 mM TRIS-HCl pH 7.5, 150 mM NaCl, 10 mM DTT; apparent; RAR apo, RXR apo
[9] = target: T3, hRARα/mRXRα LBD heterodimer; assay: fluorescence polarisation; fluorescence anisotropy; hRARα/mRXRα LBDs added to 1 µM TAMRA-SRC-1 NR2 peptide; 20°C; 10 mM TRIS-HCl pH 7.5, 150 mM NaCl, 10 mM DTT; apparent; RAR ligand AM580, RXR ligand LG100754
[10] = target: T3, hRARα/mRXRα LBD heterodimer; assay: fluorescence polarisation; fluorescence anisotropy; hRARα/mRXRα LBDs added to a fixed concentration of TAMRA-SRC-1 NR2 peptide; 20°C; 10 mM TRIS-HCl pH 7.5, 150 mM NaCl, 10 mM DTT; apparent; RAR apo, RXR ligand LG100754
[11] = target: T3, hRARα/mRXRα LBD heterodimer; assay: fluorescence polarisation; fluorescence anisotropy; hRARα/mRXRα LBDs added to a fixed concentration of TAMRA-SRC-1 NR2 peptide; 20°C; 10 mM TRIS-HCl pH 7.5, 150 mM NaCl, 10 mM DTT; apparent; RAR ligand BMS614, RXR ligand LG100754
[12] = target: T3, hRARα/mRXRα LBD heterodimer; assay: fluorescence polarisation; fluorescence anisotropy; hRARα/mRXRα LBDs added to 1 µM TAMRA-SRC-1 NR2 peptide; 20°C; 10 mM TRIS-HCl pH 7.5, 150 mM NaCl, 10 mM DTT; apparent; 9-cisRA on RAR and RXR; two sites, fit gave k2 identical to k1
[13] = target: T3, hRARα/mRXRα LBD heterodimer; assay: fluorescence polarisation; fluorescence anisotropy; hRARα/mRXRα LBDs added to 1 µM TAMRA-SRC-1 NR2 peptide; 20°C; 10 mM TRIS-HCl pH 7.5, 150 mM NaCl, 10 mM DTT; apparent; RAR ligand AM580, RXR ligand BMS649; two sites, fit gave k2 identical to k1

Kd [1]: 9000 ± 400 nM | Kd [2]: 1600 ± 200 nM | Kd [3]: 4500 ± 600 nM | Kd [4]: 1400 ± 100 nM
B1: SRC-1 NR2 peptide (676-[residues removed]-700) (peptide)
peptide: CPSSHSSLTERHKILHRLLQEGSPS
notes: The unlabelled 25-residue peptide used in ITC and ESI-MS; It is not the 13-residue TAMRA-labelled peptide of the anisotropy titrations

Kd [5]: 190 ± 20 nM | Kd [6]: 420 ± 30 nM | Kd [7]: 450 ± 40 nM | Kd [8]: 2000 ± 100 nM | Kd [9]: 170 ± 10 nM | Kd [10]: 2500 ± 100 nM | Kd [11]: > 10000 nM | Kd [12]: 610 ± 20 nM | Kd [13]: 290 ± 20 nM
B2: TAMRA-labeled SRC-1 NR2 peptide (686-RHKILHRLLQEGS-698) (peptide)
peptide: RHKILHRLLQEGS
modifications: also: TAMRA label, position not given here
notes: also called (TAMRA) – SRC-1 NR2 peptide; source: bought: Neosystem (Strasbourg, France)
